We go through one substance from US20050095655A1, “Solution-based methods for detecting MHC-binding peptides” (priority 2003, published 2005).

Experiment [1] has as its target monomer HLA-A*0201/HIVpol (Homo sapiens, UniProt P04439, D140Y/D185E/D98H/E176V/E277Q/G131W/G231S/I119V/I121R/I166T/I218V/L300P/L318F/N151K/N90K/P208A/P217A/Q86G/Q94H/R138H/R169H/T345S). As to the kind of experiment: Exchange of fluorescent tracer peptide on template monomer, no competitor.
For experiment [2], the target named is monomer HLA-A*0201/CMVpp65 (Homo sapiens, UniProt P04439, D140Y/D185E/D98H/E176V/E277Q/G131W/G231S/I119V/I121R/I166T/I218V/L300P/L318F/N151K/N90K/P208A/P217A/Q86G/Q94H/R138H/R169H/T345S). The experiment is described as above. Particulars: after 120 h.

For the substance FLPSDC(FITC)FPSV [HBVc-FITC], in experiment [1], the “maximum percentage of exchange” value is 40%. Further, the “% exchange” value in experiment [2] is recorded as “about 80%”.
